The term Km denotes the substrate concentration at which the rate is half of its maximum.

Substrate in data set [1]: Nc1ncnc2c1ncn2[C@@H]1O[C@H](COP(=O)(O)OP(=O)(O)OP(=O)(O)O)[C@@H](O)[C@H]1O
The experiment in a line: purified protein.

Substrate in data set [2]: N[C@@H](CO)C(=O)O
The experiment in a line: purified protein.

B1: SARS2 (human mitochondrial seryl-tRNA synthetase, mature form) (Homo sapiens) (protein)
chain: TTEKRNRNLLYEYAREGYSALPQLDIERFCACPEEAAHALELRKGELRSADLPAIISTWQELRQLQEQIRSLEEEKAAVTEAVRALLANQDSGEVQQDPKYQGLRARGREIRKELVHLYPREAQLEEQFYLQALKLPNQTHPDVPVGDESQARVLHMVGDKPVFSFQPRGHLEIGEKLDIIRQKRLSHVSGHRSYYLRGAGALLQHGLVNFTFNKLLRRGFTPMTVPDLLRGAVFEGCGMTPNANPSQIYNIDPARFKDLNLAGTAEVGLAGYFMDHTVAFRDLPVRMVCSSTCYRAETNTGQEPRGLYRVHHFTKVEMFGVTGPGLEQSSQLLEEFLSLQMEILTELGLHFRVLDMPTQELGLPAYRKFDIEAWMPGRGRFGEVTSASNCTDFQSRRLHIMFQTEAGELQFAHTVNATACAVPRLLIALLESNQQKDGSVLVPPALQSYLGTDRITAPTHVPLQYIGPNQPRKPGLPGQPAVS
On to B1, for which the Km came to 112.83 ± 10.54 µM in the data set “purified protein [1]” and 2400 ± 40 µM in the data set “purified protein [2]”.
